# Assay results: IntAct's records for PubMed 31631010
# B1: Palmitoyltransferase ZDHHC5 (Mus musculus), Q8VDZ4 (parent)
# chain: MPAESGKRFKPSKYVPVSAAAIFLVGATTLFFAFTCPGLSLNVSPAVPIYNAIMFLFVLANFSMATFMDPGIFPRAEEDEDKEDDFRAPLYKTVEIKGIQVRMKWCATCRFYRPPRCSHCSVCDNCVEEFDHHCPWVNNCIGRRNYRYFFLFLLSLTAHIMGVFGFGLLYVLYHIEELSGVRTAVTMAVMCVAGLFFIPVAGLTGFHVVLVARGRTTNEQVTGKFRGGVNPFTNGCCNNVSRVLCSSPAPRYLGRPKKEKTIVIRPPFLRPEVSDGQITVKIMDNGIQGELRRTKSKGSLEITESQSADAEPPPPPKPDLSRYTGLRTHLSLATNEDSSLLGKDSPPTPTMYKYRPGYSSSSTSAAMPHSSSAKLSRGDSLKEPTSIADSSRHPSYRSEPSLEPESFRSPTFGKSFHFDPLSSGSRSSSLKSAQGTGFELGQLQSIRSEGTTSTSYKSLANQTRNGSLSYDSLLTPSDSPDFESVQAGPEPDPPLGYTSPFLSARLAQQREAERHPRLLPTGPPHREPSPVRYDNLSRHIVASLQEREKLLRQSPPLAGREEEPGLGDSGIQSTPGSGHAPRTSSSSDDSKRSPLSKTPLGRPAVPRFGKPDGLRSRGLGSPEPGTTAPYLGRSISYSSQKAPSGVSETEEVALQPLLTPKDEVQLKTTYSKSNGQPKSIGSASPGPGQPPLSSPTRGGVKKVSGVGGTTYEISV
# Variants of: B1
# Conditions: with goga7_human GOLGA7, Q7Z5G4
row,effect of a mutation on the interaction,Variant
1,with no effect,C134S
2,disrupting interaction strength,C236S;C237S;C245S
